The nature of the series: self-splicing fitness, log relative to wild type (ln ratio); higher = more splicing; Tetrahymena group I intron in knt gene, E. coli kanamycin selection, DiMSum; sequences stand for … in CUCUCU…GGAGGGAAAAGUUAUCAGGCAUGCACCUGGUAGCUAGUCUUUAAACCAAUAGAUUGCAUCGGUUUAAAAGGCAAGACCGUCAAAUUGCGGGAAAGGGGUCAACAGCCGUUCAGUACCAAGUCUCAGGGGAAACUUUGAGAUGGCCUUGCAAAGGGUAUGGUAAUAAGCUGACGGACAUGGUCCUAACCACGCAGCCAAGUCCUAAGUCAACAGAUCUUCUGUUGAUAUGGAUGCAGUUCACAGACUAAAUGUCGGUCGGGGAAGAUGUAUUCUUCUCAUAAGAUAUAGUCGGACCUCUCCUUAAUGGGAGCUAGCGGAUGAAGUGAUGCAACACUGGAGCCGCUGGGAACUAAUUUGUAUGCGAAAGUAUAUUGAUUAGUUUUGGAGUACUCGUGGUCG
The essentials:
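Six replicate transformations of E. coli BL21(DE3) with a pET-22b(+) library were grown overnight at 37°C or 30°C. The library randomised all eight P1ex-region intron nucleotides, the intron lying in the knt kanamycin-resistance gene, and plates were LB agar with or without 25 μg/mL kanamycin plus 100 μg/mL carbenicillin, 50 μM IPTG and 0.2% rhamnose. Pooled colonies were amplicon-sequenced on an Illumina HiSeq 2500, and fitness is the DiMSum error-weighted combination of wild-type-normalised replicate fold changes, kanamycin versus none.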

± gives the uncertainty stated by the source.

Regarding GUAGAGCAAUAUUACGUUAC, the “self-splicing fitness (ln)” value reads like this: (30 °C) -2.63 ± 0.18; (37 °C) -0.785 ± 0.14. Taken in the same sequence, the figures for AUCCAGCAAUAUUACGAUUU were -0.0954 ± 0.061 and 0.488 ± 0.081. On to UGUAAGCAAUAUUACGGGGA, for which, where the note is “37 °C”, the “self-splicing fitness (ln)” value was -1.19 ± 0.25. As to CGUGAGCAAUAUUACGCGGA, the “self-splicing fitness (ln)” value (37 °C) is -1.62 ± 0.39. Regarding GCCGAGCAAUAUUACGUCGG, the “self-splicing fitness (ln)” value (30 °C) was -4.39 ± 0.46.

For the sequence AAACAGCAAUAUUACGGGCA, the “self-splicing fitness (ln)” value is -1.86 ± 0.1 (30 °C) and -1.24 ± 0.1 (37 °C). For CAUGAGCAAUAUUACGAGCG, the “self-splicing fitness (ln)” value is -0.045 ± 0.092 (30 °C) and 0.443 ± 0.11 (37 °C). As to AUGCAGCAAUAUUACGCAUG, the “self-splicing fitness (ln)” value is -3.28 ± 0.35 (30 °C) and -2.66 ± 0.31 (37 °C). Taken in the same sequence, the figures for GGCUAGCAAUAUUACGGCAC were 0.203 ± 0.13 and -0.036 ± 0.14. Taken in the same sequence, the figures for CUAUAGCAAUAUUACGUCCG were -0.823 ± 0.11 and 0.0188 ± 0.13.

Take ACUAAGCAAUAUUACGGACC: the “self-splicing fitness (ln)” value was -1.4 ± 0.15 (30 °C) and -0.596 ± 0.19 (37 °C). Regarding ACCUAGCAAUAUUACGACUA, the “self-splicing fitness (ln)” value reads like this: (30 °C) -2.72 ± 0.21; (37 °C) -1.78 ± 0.23. On to AUUAAGCAAUAUUACGAUUA, for which the “self-splicing fitness (ln)” value runs as follows: (30 °C) -0.777 ± 0.13; (37 °C) -0.308 ± 0.13.

In the case of GUCGAGCAAUAUUACGUGUG, the “self-splicing fitness (ln)” value is -0.922 ± 0.12 (30 °C) and -0.585 ± 0.17 (37 °C). Consider UAUCAGCAAUAUUACGUGGG, for which the “self-splicing fitness (ln)” value reads like this: (30 °C) -1.97 ± 0.1; (37 °C) -1.77 ± 0.13. Take CGAAAGCAAUAUUACGAGAC: where the note is “37 °C”, the “self-splicing fitness (ln)” value was -2.62 ± 0.24. As for UACGAGCAAUAUUACGCACA, the “self-splicing fitness (ln)” value was -3.08 ± 0.26 (30 °C) and -1.29 ± 0.21 (37 °C). With GUCAAGCAAUAUUACGUCGG, where the note is “37 °C”, the “self-splicing fitness (ln)” value is -1.88 ± 0.18.

In the case of UUUCAGCAAUAUUACGGAAA, the “self-splicing fitness (ln)” value is, setting by setting: (30 °C) -2.7 ± 0.47; (37 °C) -2.07 ± 0.22. For the sequence CUGUAGCAAUAUUACGACCC, the “self-splicing fitness (ln)” value (30 °C) is -1.04 ± 0.43. Turning to AUGUAGCAAUAUUACGGACC, the “self-splicing fitness (ln)” value was -1.05 ± 0.2 (30 °C) and -0.411 ± 0.21 (37 °C). Take AUAUAGCAAUAUUACGGUCG: the “self-splicing fitness (ln)” value reads like this: (30 °C) -1.44 ± 0.13; (37 °C) -1.26 ± 0.17. The like results for CAACAGCAAUAUUACGAAUA were, in that order, -3.74 ± 0.28 and -1.83 ± 0.2. The like results for GUUUAGCAAUAUUACGCGCC were, in that order, -3.31 ± 0.43 and -2.51 ± 0.44. The like results for CAACAGCAAUAUUACGCCUA were, in that order, -2.08 ± 0.12 and -1.31 ± 0.11. GCAAAGCAAUAUUACGGAUC: the “self-splicing fitness (ln)” value (30 °C) is -1.26 ± 0.073 and the “self-splicing fitness (ln)” value (37 °C) was -0.379 ± 0.085.

Regarding CGGGAGCAAUAUUACGUGGC, the “self-splicing fitness (ln)” value was -2.62 ± 0.21 (30 °C) and -2.43 ± 0.36 (37 °C). Turning to CUUUAGCAAUAUUACGGGGA, the “self-splicing fitness (ln)” value is, setting by setting: (30 °C) -2.88 ± 0.19; (37 °C) -1.38 ± 0.17.

Take UACAAGCAAUAUUACGGCGA: the “self-splicing fitness (ln)” value reads like this: (30 °C) -0.244 ± 0.072; (37 °C) 0.0939 ± 0.087. GAGCAGCAAUAUUACGAUUA: the “self-splicing fitness (ln)” value was -2.26 ± 0.15 (30 °C) and -1.13 ± 0.12 (37 °C). UUUAAGCAAUAUUACGUAGC: the “self-splicing fitness (ln)” value (37 °C) is -2.34 ± 0.36. CGAAAGCAAUAUUACGAUAG: the “self-splicing fitness (ln)” value is, setting by setting: (30 °C) -0.598 ± 0.074; (37 °C) 0.569 ± 0.1.

On to CGUGAGCAAUAUUACGCAGA, for which the “self-splicing fitness (ln)” value (37 °C) was -1.49 ± 0.38.

On to AACGAGCAAUAUUACGGCUU, for which the “self-splicing fitness (ln)” value is -0.938 ± 0.076 (30 °C) and -0.225 ± 0.1 (37 °C). The like results for UCUUAGCAAUAUUACGAUAA were, in that order, -2.73 ± 0.46 and -2.27 ± 0.4.

Take UGGAAGCAAUAUUACGACAA: the “self-splicing fitness (ln)” value was -1.46 ± 0.14 (30 °C) and -1.88 ± 0.17 (37 °C). The like results for CACCAGCAAUAUUACGAAUC were, in that order, -4.57 ± 0.31 and -0.445 ± 0.18. For CAGGAGCAAUAUUACGUAGC, the “self-splicing fitness (ln)” value (37 °C) was -2.7 ± 0.36.

As to GGCUAGCAAUAUUACGUCCU, the “self-splicing fitness (ln)” value was -1.68 ± 0.1 (30 °C) and -1.3 ± 0.13 (37 °C). Take GAUGAGCAAUAUUACGUCCA: the “self-splicing fitness (ln)” value (30 °C) was -2.12 ± 0.36 and the “self-splicing fitness (ln)” value (37 °C) is -2.26 ± 0.32. The like results for CUAUAGCAAUAUUACGUGGG were, in that order, -3.25 ± 0.19 and -2.16 ± 0.15.

The record behind these values is the supplement of paper PMC7877785.
